3 substances from patent US5871995 can be followed below.

For experiment [1], the target named is phenylalanyl-glycyl-phenylalanyl-hydroxylglycine.
Experiment [2] has as its target phenylalanyl-glycyl-phenylalanyl-glycine.

Turning to “Enzyme expressed from plasmid SV-a (Signal sequence + N-terminal domain) in COS-7 cells (from UniProt P14925)”, the Enzyme activity n mole/h/ml medium, PheGlyPhehydroxyGly to PheGlyPhe-NH2 + glyoxylic acid (n mole/h/ml medium) in experiment [1] was under 2. Also, the Enzyme activity n mole/h/ml medium, PheGlyPheGly to PheGlyPhehydroxyGly (n mole/h/ml medium) in experiment [2] turned out to be 2.8.

Consider “Enzyme expressed from plasmid SV-b (Signal sequence + C-terminal domain) in COS-7 cells (from UniProt P14925)”, for which, in experiment [1], the Enzyme activity n mole/h/ml medium, PheGlyPhehydroxyGly to PheGlyPhe-NH2 + glyoxylic acid (n mole/h/ml medium) was 10.8. The same substance came in with an Enzyme activity n mole/h/ml medium, PheGlyPheGly to PheGlyPhehydroxyGly (n mole/h/ml medium) in experiment [2] of 0.4.

“Enzyme expressed from plasmid SV-203 (Signal sequence + N-terminal domain + C-terminal domain) in COS-7 cells (from UniProt P14925)”: the Enzyme activity n mole/h/ml medium, PheGlyPhehydroxyGly to PheGlyPhe-NH2 + glyoxylic acid (n mole/h/ml medium) in experiment [1] turned out to be 4.2. For the same substance, in experiment [2], the Enzyme activity n mole/h/ml medium, PheGlyPheGly to PheGlyPhehydroxyGly (n mole/h/ml medium) was determined as 2.5.
